Results taken from article PMC9350882, “Molecular and Biochemical Differences of the Tandem and Cold-Adapted PET Hydrolases Ple628 and Ple629, Isolated From a Marine Microbial Consortium” (Frontiers in Bioengineering and Biotechnology, 2022).

System: CC(=O)Oc1ccc([N+](=O)[O-])cc1
Test: purified protein
Format: biochemical, Marinobacter sp.
Conditions: PBS pH 7.0, 20 °C, 0.1-2.5 mM substrate

Row | Substance | Km [mM] | kcat [min⁻¹]
1 | Ple629 (Marinobacter sp.) | 2.1 | 284.5
2 | Ple628 (Marinobacter sp.) | 1.8 | 269.9
